From the supplement of paper PMC10065799, “High-throughput profiling of sequence recognition by tyrosine kinases and SH2 domains using bacterial peptide display” (eLife, 2023)

How the values were obtained:
AncSZ = assay: phosphorylation enrichment, bacterial display (enrichment ratio); higher = better substrate or ligand; peptides without Tyr show the background
EPHB1 = EPHB1 (UniProt P54762); assay: as above
EPHB2 = EPHB2 (UniProt P29323); assay: as above
FGFR1 = FGFR1 (UniProt P11362); assay: as above
FGFR3 = FGFR3 (UniProt P22607); assay: as above
FGFR3, sequence (P22607 whole entry, looked up): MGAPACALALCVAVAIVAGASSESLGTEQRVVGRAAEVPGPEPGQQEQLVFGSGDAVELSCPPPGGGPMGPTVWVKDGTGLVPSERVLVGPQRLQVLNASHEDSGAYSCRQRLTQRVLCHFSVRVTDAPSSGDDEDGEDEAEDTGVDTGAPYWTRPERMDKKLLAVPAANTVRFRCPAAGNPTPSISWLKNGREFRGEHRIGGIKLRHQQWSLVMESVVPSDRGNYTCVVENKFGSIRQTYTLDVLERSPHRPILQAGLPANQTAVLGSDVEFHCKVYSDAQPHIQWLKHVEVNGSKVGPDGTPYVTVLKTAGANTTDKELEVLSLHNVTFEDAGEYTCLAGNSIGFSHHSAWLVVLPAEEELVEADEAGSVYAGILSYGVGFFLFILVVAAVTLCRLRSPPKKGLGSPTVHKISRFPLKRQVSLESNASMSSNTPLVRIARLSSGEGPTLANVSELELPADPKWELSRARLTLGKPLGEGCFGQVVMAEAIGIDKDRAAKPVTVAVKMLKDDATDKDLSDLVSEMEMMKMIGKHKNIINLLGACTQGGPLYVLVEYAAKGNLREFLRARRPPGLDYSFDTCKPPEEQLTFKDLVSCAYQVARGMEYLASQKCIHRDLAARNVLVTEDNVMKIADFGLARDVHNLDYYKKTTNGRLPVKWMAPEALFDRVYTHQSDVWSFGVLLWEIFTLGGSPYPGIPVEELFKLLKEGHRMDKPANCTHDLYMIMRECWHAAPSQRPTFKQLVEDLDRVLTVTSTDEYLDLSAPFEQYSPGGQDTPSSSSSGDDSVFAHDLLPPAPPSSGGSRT

Fer (mouse) = assay: as above
Fes = Fes (UniProt P07332); assay: as above
Fyn = Fyn (UniProt P06241); assay: as above
Fyn, sequence (P06241 whole entry, looked up): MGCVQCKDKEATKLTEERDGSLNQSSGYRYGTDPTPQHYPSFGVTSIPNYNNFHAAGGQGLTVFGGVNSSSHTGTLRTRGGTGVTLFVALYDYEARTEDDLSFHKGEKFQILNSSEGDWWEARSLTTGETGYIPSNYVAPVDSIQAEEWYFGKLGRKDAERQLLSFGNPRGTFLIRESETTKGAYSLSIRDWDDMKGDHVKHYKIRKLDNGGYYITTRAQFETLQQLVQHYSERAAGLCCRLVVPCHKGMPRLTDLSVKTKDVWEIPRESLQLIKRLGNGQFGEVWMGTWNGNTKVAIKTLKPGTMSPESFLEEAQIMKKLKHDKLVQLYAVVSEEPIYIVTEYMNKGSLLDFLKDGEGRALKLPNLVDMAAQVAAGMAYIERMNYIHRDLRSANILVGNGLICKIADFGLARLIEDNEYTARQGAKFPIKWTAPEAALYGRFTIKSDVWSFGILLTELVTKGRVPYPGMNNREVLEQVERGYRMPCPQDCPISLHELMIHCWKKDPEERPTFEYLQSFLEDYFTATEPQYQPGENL

Hck = Hck (UniProt P08631); assay: as above
Hck, sequence (P08631 whole entry, looked up): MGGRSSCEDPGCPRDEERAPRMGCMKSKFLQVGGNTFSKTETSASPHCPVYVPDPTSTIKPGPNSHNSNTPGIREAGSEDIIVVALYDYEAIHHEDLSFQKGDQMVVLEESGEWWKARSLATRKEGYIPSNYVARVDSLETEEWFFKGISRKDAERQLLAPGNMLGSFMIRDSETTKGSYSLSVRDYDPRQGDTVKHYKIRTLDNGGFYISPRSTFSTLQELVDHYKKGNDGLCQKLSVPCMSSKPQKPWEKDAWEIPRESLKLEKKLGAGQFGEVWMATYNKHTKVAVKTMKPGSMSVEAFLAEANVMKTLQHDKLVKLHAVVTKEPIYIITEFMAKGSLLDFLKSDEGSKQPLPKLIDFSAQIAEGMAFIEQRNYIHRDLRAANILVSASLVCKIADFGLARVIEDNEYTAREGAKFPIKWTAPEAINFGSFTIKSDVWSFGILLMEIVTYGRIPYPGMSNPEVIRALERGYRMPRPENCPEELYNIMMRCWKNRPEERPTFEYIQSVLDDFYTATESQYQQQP

Jak2 = Jak2 (UniProt O60674); assay: as above
Jak2, sequence (O60674 whole entry, looked up): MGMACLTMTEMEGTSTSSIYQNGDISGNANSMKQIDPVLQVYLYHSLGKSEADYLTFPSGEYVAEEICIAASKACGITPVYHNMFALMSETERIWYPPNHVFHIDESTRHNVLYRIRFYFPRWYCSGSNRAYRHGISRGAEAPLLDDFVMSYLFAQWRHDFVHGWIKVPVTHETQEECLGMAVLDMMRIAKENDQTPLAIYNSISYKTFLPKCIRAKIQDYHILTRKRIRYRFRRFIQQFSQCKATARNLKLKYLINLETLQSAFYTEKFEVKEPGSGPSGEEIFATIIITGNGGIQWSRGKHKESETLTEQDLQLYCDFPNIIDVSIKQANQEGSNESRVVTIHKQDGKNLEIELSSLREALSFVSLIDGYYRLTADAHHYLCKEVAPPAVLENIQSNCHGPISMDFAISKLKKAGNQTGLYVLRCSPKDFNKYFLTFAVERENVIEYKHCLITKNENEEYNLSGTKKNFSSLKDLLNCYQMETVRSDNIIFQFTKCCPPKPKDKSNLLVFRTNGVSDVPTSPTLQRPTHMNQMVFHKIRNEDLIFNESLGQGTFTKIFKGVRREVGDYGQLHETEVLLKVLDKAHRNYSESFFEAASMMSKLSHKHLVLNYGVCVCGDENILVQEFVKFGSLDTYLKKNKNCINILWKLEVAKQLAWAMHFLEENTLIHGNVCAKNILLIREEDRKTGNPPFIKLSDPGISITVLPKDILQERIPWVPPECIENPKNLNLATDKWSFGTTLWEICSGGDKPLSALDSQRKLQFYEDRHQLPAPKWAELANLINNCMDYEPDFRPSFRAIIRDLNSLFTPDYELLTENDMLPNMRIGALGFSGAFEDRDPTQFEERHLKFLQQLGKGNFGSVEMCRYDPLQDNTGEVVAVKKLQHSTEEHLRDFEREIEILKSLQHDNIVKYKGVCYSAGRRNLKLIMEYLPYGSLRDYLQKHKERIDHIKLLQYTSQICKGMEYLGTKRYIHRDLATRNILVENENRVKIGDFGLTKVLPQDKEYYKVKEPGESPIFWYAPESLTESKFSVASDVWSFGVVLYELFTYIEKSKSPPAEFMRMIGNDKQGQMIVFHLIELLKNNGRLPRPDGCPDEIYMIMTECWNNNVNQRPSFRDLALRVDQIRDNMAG

MERTK = MERTK (UniProt Q12866); assay: as above
MERTK, sequence (Q12866 whole entry, looked up): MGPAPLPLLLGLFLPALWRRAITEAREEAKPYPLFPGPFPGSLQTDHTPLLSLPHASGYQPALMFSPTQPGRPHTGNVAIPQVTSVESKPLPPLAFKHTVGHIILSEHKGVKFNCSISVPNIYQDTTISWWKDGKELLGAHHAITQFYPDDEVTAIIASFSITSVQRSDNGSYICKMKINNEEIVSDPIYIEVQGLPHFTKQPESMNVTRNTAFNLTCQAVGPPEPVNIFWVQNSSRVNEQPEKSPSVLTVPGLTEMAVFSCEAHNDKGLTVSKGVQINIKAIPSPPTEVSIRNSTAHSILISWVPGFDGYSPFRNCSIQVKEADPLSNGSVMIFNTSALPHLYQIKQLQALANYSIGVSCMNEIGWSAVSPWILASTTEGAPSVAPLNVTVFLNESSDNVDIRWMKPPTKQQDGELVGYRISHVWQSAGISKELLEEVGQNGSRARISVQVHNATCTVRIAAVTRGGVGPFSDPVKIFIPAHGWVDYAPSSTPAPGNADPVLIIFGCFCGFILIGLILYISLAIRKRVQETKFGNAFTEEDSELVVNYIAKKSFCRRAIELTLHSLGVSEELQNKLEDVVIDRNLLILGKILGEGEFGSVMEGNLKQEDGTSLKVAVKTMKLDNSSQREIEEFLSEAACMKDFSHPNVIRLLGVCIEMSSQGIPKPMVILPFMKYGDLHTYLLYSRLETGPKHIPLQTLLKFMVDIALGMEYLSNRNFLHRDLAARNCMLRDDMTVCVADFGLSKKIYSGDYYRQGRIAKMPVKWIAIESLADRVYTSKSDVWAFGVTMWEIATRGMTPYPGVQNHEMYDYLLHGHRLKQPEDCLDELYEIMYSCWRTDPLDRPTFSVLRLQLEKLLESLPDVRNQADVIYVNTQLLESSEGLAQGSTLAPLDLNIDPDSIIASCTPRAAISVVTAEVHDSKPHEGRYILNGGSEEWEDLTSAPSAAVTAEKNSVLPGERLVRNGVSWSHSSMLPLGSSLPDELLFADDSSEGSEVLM

c-Abl (mouse) = assay: as above
c-Src = assay: as above
Grb2 SH2 = Grb2 SH2 (UniProt P62993); assay: SH2 binding enrichment of the phosphorylated peptide, bacterial display (enrichment ratio); higher = better substrate or ligand; peptides without Tyr show the background
SHP2-C SH2 = assay: as above
c-Src SH2 = assay: as above
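Wherever SH2 binding enrichment of the phosphorylated peptide, bacterial display is given: peptide library displayed on the E. coli surface as eCPX fusions, selected cells deep-sequenced, score is each peptide's frequency after selection divided by its frequency in the input.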
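Wherever phosphorylation enrichment, bacterial display is given: 11-residue human phosphosite peptides and single-mutation variants displayed on the E. coli surface, counted by deep sequencing, each peptide's frequency after selection divided by its frequency in the unselected input library; frequency after pTyr selection over input frequency; kinase dosed for 20-30% of maximal phosphorylation in three min.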

EPHB1, sequence (P54762 whole entry, looked up): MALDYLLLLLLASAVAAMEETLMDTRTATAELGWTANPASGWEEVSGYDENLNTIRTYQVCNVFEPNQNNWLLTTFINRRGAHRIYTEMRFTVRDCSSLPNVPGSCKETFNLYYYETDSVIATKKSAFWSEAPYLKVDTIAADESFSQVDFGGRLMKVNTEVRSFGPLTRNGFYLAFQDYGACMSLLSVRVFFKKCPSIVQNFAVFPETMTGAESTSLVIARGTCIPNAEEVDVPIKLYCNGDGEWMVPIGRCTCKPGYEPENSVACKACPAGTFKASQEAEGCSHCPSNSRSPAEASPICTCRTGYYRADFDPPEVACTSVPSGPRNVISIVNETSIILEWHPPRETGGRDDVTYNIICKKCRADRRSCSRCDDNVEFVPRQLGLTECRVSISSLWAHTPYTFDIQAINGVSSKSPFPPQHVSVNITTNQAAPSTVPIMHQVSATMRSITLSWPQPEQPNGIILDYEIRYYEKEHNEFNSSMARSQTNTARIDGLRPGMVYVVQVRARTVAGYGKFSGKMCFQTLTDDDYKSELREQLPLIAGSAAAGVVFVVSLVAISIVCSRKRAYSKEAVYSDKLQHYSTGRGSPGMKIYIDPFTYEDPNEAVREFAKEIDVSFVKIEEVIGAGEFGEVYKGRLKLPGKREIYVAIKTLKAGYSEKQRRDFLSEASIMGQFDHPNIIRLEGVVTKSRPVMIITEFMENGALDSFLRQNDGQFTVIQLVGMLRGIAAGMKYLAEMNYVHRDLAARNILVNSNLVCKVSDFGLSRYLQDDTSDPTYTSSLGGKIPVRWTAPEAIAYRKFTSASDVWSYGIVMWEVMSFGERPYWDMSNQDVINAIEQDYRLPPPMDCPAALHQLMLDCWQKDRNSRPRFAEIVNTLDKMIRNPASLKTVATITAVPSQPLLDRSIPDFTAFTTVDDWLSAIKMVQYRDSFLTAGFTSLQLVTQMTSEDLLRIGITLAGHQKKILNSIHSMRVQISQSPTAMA

Sequence	SH2 binding enrichment (Grb2 SH2)	SH2 binding enrichment (SHP2-C SH2)	SH2 binding enrichment (c-Src SH2)	phosphorylation enrichment (AncSZ)	phosphorylation enrichment (EPHB1)	phosphorylation enrichment (EPHB2)	phosphorylation enrichment (FGFR1)	phosphorylation enrichment (FGFR3)	phosphorylation enrichment (Fer (mouse))	phosphorylation enrichment (Fes)	phosphorylation enrichment (Fyn)	phosphorylation enrichment (Hck)	phosphorylation enrichment (Jak2)	phosphorylation enrichment (MERTK)	phosphorylation enrichment (c-Abl (mouse))	phosphorylation enrichment (c-Src)
NSVLVYRNGDP [DCDC2_Y22_K17N]	0.773	0.614	0.401	0.621	0.532	0.463	0.393	0.533	0.373	0.678	0.443	0.492	0.627	0.454	0.534	0.591
NVADHYGVFKP [ATP6V0D2_Y271_YF]	1.06	0.96	0.717	0.557	0.3	0.441	0.443	0.408	0.455	0.691	4.49	3.18	0.404	0.435	0.538	4.14
PADSGYPAFLG [ATP6V1A_Y374_YF]	0.765	0.502	0.423	1.72	1.51	0.6	0.981	1.36	0.759	1.88	1.04	0.959	1.1	0.87	1.12	0.772
PELINYHQHYS [BTK_Y361_N365Y]	1.08	1.07	0.658	0.742	1.23	1.68	0.769	0.585	0.427	0.688	0.662	0.356	0.577	0.319	0.563	0.5
PELINYHQPNS [BTK_Y361_H364P]	1.07	0.763	0.704	0.928	1.04	0.727	0.723	0.857	0.678	0.908	0.597	0.734	0.829	0.657	0.574	0.8
PFAEPYADFGG [APBA1_Y187_S184A_YF]	0.742	0.682	0.676	1.13	0.695	0.593	0.68	0.802	0.38	1.2	0.72	0.673	0.993	0.571	0.638	2.43
PFSNPYENSLI [EPOR_Y489_YF]	15.5	0.501	4.88	1.92	0.92	0.929	0.964	1.02	2.23	1.48	1.04	0.848	3.41	0.675	1.18	1.01
PFTRNYYVWAV [CYBA_Y87_R90W]	1.32	1.54	0.899	1.41	3.1	3.42	9.92	8.21	1.2	1.12	0.744	1.03	2.5	6.79	4.71	0.777

Further lines, with some results ahead:

SH2 binding enrichment (Grb2 SH2)	SH2 binding enrichment (SHP2-C SH2)	SH2 binding enrichment (c-Src SH2)	Sequence	phosphorylation enrichment (AncSZ)	phosphorylation enrichment (EPHB1)	phosphorylation enrichment (EPHB2)	phosphorylation enrichment (FGFR1)	phosphorylation enrichment (FGFR3)	phosphorylation enrichment (Fer (mouse))	phosphorylation enrichment (Fes)	phosphorylation enrichment (Fyn)	phosphorylation enrichment (Hck)	phosphorylation enrichment (Jak2)	phosphorylation enrichment (MERTK)	phosphorylation enrichment (c-Abl (mouse))	phosphorylation enrichment (c-Src)
0.757	0.607	0.742	NVVVPYEPPEV [TP53_Y220_S215N]	1.11	0.612	0.708	0.443	0.69	0.58	1.15	0.641	0.56	1.11	0.493	0.768	0.543
3.18	0.819	2.63	NYSKMYCNPDA [KNL1_Y489_A486S]	0.794	0.536	0.45	0.483	0.521	0.435	0.914	0.396	0.469	0.819	0.414	0.566	0.349
1.16	0.702	1.84	NYYDLYGGEKF [PTPN11_Y66_D61N]	1.48	10.6	12.1	13.4	11.7	2.32	1.03	5.82	5.52	1.97	7.49	0.725	4.47
0.857	0.751	0.686	PAIERYVVVCK [RHO_Y136_L131P]	1.08	0.896	0.846	0.505	0.851	0.473	1.41	0.612	0.551	1.08	0.374	0.928	0.474
1.29	1	1.25	PDMHSYVVRFN [GRIN2D_Y732_M733V_YF]	0.882	0.658	0.464	0.78	0.797	0.411	1.04	0.467	0.431	1.81	0.531	0.873	0.553
0.739	0.568	0.471	PFFTSYPPSPD [GDAP2_Y491_YF]	0.907	0.438	0.447	0.557	0.644	0.507	1.15	0.498	0.356	1.14	0.629	0.901	0.588
0.874	0.832	7.89	PFQGAYLEINK [MYO1B_Y967]	1.03	0.609	0.577	0.485	0.763	0.401	1.09	0.526	0.361	1.24	0.464	0.497	0.607
1.22	1.04	1.07	PFRQWYESHFA [RPS8_Y113_YF]	1.08	0.827	0.786	0.731	0.524	3.73	1.11	0.586	0.68	0.963	0.906	0.764	0.972
0.728	0.592	0.366	PGVDIYISPNM [PADI3_Y51]	1.64	1.17	0.973	1.67	1.11	0.814	1.8	1.02	1.38	1.75	0.534	1.68	0.894
